T1: GST-tagged dystrophin (3049–3299) (mouse, UniProt P11531 3049-3299)
T1 sequence (looked up): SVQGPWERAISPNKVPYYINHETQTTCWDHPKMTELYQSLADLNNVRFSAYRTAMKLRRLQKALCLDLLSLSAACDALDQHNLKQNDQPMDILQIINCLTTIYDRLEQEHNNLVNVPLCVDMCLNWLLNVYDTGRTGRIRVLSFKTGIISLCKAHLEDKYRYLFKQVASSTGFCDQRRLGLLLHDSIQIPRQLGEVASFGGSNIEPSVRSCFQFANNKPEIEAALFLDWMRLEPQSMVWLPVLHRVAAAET

B1: δ-sarcoglycan (natural protein, mouse (endogenous in skeletal muscle), UniProt P82347 1-289, looked up)
chain: MPQEQYSHHRSTMPSSEGPHIYKVGIYGWRKRCLYFFVLLLMILILVNLAMTIWILKVMNFTIDGMGNLRITEKGLKLEGDSEFLQPLYAKEIKSRPGNALYFKSARNVTVNILNDQTKVLTQLVTGPKAVEAYGKRFEVKTVSGKLLFSADDSEVVVGAERLRVLGAEGTVFPKSIETPNVRADPFKELRLESPTRSLVMEAPKGVEINAEAGNMEAICRSELRLESKDGEIKLDAAKIKLPRLPRGSYTPTGTRQKVFEVCVCANGRLFLSQAGTGSTCQINTSVCL
modifications: glycosylated at N108
B2: β-sarcoglycan (natural protein, mouse (endogenous in skeletal muscle), UniProt P82349 1-320, looked up)
chain: MAAAAAAAAATEQQGSNGPVKKSMREKAVERRNVNKEHNSNFKAGYIPIDEDRLHKTGLRGRKGNLAICVIVLLFILAVINLLITLVIWAVIRIGPNGCDSMEFHESGLLRFKQVSDMGVIHPLYKSTVGGRRNENLVITGNNQPIVFQQGTTKLSVEKNKTSITSDIGMQFFDPRTHNILFSTDYETHEFHLPSGVKSLNVQKASTERITSNATSDLNIKVDGRAIVRGNEGVFIMGKTIEFHMGGDVELKAENSIILNGTVMVSPTRLPSSSSGDQSGSGDWVRYKLCMCADGTLFKVQVTGHNMGCQVSDNPCGNTH
modifications: glycosylated at N160, N213, N260
B3: sarcospan (natural protein, mouse (endogenous in skeletal muscle), UniProt Q62147 1-216, looked up)
chain: MGRKPSPRAQELPEEEARTCCGCRFPLLLALLQLALGIAVTVLGFLMASISPSLLVRDTPFWAGSIVCVVAYLGLFMLCVSYQVDERTCVQFSMKVFYFLLSALGLMVCMLAVAFAAHHYSLLAQFTCETSLDSCQCKLPSSEPLSRAFVYRDVTDCTSVTGTFKLFLIIQMVLNLVCGLVCLLACFVMWKHRYQVFYVGVGLRSLMASDGQLPKA
B4: β-dystroglycan (natural protein, mouse (endogenous in skeletal muscle), UniProt Q62165 652-893, looked up)
chain: SIVVEWTNNTLPLEPCPKEQIIGLSRRIADENGKPRPAFSNALEPDFKALSIAVTGSGSCRHLQFIPVAPPSPGSSAAPATEVPDRDPEKSSEDDVYLHTVIPAVVVAAILLIAGIIAMICYRKKRKGKLTLEDQATFIKKGVPIIFADELDDSKPPPSSSMPLILQEEKAPLPPPEYPNQSMPETTPLNQDTVGEYTPLRDEDPNAPPYQPPPPFTAPMEGKGSRPKNMTPYRSPPPYVPP
modifications: glycosylated at N659
B5: 6×His-tagged dystrobrevin (1–237) (domain or fragment, mouse, UniProt Q9D2N4 1-237, looked up)
chain: MIEDSGKRGNTMAERRQLFAEMRAQDLDRIRLSTYRTACKLRFVQKKCNLHLVDIWNVIEALRENALNNLDPNIELNVARLEAVLSTIFYQLNKRMPTTHQIHVEQSISLLLNFLLAAFDPEGHGKISVFAVKMALATLCGGKIMDKLRYIFSMISDSSGVMVYGRYDQFLREVLKLPTAVFEGPSFGYTEQSARSCFSQQKKVTLNGFLDTLMSDPPPQCLVWLPLLHRLANVENV
B6: dystrobrevin (natural protein, mouse (endogenous in skeletal muscle), UniProt Q9D2N4 1-746, looked up)
chain: MIEDSGKRGNTMAERRQLFAEMRAQDLDRIRLSTYRTACKLRFVQKKCNLHLVDIWNVIEALRENALNNLDPNIELNVARLEAVLSTIFYQLNKRMPTTHQIHVEQSISLLLNFLLAAFDPEGHGKISVFAVKMALATLCGGKIMDKLRYIFSMISDSSGVMVYGRYDQFLREVLKLPTAVFEGPSFGYTEQSARSCFSQQKKVTLNGFLDTLMSDPPPQCLVWLPLLHRLANVENVFHPVECSYCHSESMMGFRYRCQQCHNYQLCQDCFWRGHAGGSHSNQHQMKEYTSWKSPAKKLTNALSKSLSCASSREPLHPMFPDQPEKPLNLAHIVPPRPVTSMNDTLFSHSVPSSGSPFITRSSPPKDSEVEQNKMLARAAPAFLKGRGIQYSLNVADRLADEHVLIGLYVNMLRNDPPCMLESSNRLDEEHRLIARYAARLAAESSSSQPTQQRSAPDISFTIDANKQQRQLIAELENKNREILQEIQRLRVEHEQASQPTPEKAQQNPTLLAELRLLRQRKDELEQRMSALQESRRELMVQLEGLMKLLKEEELKQGTQGASSPRSSPSHTISRPIPMPIRSASACPTPTHTPQDSLTGVGGDVQEAFAQSSRRNLRSDLLVAADSITNTMSSLVKELNSEVASETESTVDSEFSRPQFEDLAPSPTSEKAFLAQIHSRKPGYIHGGAASTTHGDMVPEDGDPYTQPEDGNYENESVRQLENELQLEEYLKQKLQDEAYQVSLQG

Columns and labels:
β-sarcoglycan = target: B2; assay: cryo-EM structure
dystrophin = dystrophin (mouse (endogenous in skeletal muscle), UniProt P11531 1-3678); assay: cryo-EM structure
Sequence of dystrophin (P11531 whole entry): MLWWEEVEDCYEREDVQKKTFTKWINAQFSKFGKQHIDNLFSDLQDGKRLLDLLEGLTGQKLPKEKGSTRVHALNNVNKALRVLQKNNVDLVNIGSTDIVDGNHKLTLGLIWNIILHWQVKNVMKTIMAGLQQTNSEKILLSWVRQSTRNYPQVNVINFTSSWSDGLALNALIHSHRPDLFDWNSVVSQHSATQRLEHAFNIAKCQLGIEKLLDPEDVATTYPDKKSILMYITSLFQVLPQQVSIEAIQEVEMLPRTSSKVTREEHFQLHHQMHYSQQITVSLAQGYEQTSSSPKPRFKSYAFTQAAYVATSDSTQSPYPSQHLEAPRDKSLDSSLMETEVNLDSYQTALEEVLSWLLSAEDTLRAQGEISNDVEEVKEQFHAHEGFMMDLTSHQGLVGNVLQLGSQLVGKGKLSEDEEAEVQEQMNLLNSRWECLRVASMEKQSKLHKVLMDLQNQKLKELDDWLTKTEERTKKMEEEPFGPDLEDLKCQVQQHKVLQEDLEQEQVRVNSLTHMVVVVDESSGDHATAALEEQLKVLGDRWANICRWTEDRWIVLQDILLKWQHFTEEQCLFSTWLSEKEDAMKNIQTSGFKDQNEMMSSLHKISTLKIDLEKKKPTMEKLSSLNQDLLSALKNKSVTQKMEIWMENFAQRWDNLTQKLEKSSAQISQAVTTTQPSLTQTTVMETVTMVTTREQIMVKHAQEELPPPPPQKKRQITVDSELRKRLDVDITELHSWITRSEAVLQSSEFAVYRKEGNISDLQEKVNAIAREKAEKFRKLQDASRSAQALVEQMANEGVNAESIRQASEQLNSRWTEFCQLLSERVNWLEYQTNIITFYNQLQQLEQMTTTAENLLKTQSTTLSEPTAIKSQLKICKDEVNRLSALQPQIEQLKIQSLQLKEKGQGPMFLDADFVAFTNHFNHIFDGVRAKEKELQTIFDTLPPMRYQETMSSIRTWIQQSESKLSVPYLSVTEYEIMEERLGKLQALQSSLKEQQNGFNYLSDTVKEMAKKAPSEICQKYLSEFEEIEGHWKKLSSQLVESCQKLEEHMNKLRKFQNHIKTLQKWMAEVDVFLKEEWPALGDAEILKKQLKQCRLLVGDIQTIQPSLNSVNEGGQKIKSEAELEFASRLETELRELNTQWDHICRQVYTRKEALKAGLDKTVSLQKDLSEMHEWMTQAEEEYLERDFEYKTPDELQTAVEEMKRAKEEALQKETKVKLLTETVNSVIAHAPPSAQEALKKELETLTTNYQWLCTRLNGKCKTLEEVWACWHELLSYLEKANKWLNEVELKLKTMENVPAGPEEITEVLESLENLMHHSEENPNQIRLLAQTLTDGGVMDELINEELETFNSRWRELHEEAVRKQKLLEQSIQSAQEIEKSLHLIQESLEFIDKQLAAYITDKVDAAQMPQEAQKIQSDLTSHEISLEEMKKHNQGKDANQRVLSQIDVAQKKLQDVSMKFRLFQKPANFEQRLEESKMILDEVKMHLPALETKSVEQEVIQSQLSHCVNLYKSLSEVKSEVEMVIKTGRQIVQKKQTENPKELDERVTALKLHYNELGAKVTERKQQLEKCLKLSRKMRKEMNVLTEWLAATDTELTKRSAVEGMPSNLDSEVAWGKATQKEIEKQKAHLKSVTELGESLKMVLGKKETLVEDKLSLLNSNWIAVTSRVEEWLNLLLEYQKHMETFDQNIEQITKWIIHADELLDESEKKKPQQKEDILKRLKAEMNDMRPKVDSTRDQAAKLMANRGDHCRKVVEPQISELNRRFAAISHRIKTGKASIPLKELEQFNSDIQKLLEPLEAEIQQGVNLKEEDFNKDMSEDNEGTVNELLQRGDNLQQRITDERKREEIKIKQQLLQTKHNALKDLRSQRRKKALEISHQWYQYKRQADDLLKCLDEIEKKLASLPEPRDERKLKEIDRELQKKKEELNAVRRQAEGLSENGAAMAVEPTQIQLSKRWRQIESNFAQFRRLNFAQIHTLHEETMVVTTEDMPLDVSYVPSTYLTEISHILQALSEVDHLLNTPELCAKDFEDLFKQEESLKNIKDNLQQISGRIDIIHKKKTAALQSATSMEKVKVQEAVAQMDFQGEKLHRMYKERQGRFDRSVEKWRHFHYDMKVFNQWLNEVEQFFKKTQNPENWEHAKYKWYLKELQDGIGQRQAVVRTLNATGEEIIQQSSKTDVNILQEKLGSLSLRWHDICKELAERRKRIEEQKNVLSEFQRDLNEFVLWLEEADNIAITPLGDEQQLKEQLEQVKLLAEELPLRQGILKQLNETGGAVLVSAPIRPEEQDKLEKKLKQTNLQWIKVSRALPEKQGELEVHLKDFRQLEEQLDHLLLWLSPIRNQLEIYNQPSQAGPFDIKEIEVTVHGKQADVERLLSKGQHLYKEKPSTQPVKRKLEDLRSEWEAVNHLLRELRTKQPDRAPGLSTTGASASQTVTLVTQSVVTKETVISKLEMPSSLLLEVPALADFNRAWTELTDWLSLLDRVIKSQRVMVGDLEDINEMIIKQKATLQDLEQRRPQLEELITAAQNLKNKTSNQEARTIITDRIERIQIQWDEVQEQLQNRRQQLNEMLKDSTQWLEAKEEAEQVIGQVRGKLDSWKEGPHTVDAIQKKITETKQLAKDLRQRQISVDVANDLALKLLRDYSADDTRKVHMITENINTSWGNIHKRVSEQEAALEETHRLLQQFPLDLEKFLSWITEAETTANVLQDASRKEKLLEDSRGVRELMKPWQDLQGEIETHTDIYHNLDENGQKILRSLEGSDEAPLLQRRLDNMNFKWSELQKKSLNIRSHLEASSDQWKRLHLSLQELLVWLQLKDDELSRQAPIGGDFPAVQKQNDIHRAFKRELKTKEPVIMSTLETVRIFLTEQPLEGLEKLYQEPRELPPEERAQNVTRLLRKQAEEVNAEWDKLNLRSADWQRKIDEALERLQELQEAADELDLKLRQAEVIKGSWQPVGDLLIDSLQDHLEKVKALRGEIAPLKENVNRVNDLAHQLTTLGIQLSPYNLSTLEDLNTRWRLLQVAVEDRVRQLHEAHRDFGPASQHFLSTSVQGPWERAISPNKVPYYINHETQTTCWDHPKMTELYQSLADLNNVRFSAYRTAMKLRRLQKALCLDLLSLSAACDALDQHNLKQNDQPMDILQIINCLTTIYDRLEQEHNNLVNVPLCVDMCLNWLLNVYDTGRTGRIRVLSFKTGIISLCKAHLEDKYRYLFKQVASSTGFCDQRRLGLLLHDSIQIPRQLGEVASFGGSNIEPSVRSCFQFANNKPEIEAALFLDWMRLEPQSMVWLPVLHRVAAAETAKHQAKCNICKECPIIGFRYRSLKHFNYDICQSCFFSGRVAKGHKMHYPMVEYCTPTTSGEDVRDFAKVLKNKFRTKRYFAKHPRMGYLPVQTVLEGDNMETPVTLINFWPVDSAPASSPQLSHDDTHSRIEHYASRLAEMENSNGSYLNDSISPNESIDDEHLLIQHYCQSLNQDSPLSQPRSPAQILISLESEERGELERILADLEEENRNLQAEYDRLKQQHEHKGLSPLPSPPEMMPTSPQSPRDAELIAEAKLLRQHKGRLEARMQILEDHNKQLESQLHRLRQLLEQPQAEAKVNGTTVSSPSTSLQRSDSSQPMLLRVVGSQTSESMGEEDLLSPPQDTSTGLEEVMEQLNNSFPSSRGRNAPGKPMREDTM

β-dystroglycan = target: B4; assay: cryo-EM structure
[1] = target: T1, GST-tagged dystrophin (3049–3299); assay: SEC

| binding result (dystrophin) | Binder | other results |
| --- | --- | --- |
| – | B1 | binding result (β-sarcoglycan): binds |
| binds | B2 | – |
| – | B3 | binding result (β-dystroglycan): binds |
| binds | B4 | – |
| – | B5 | binding result [1]: binds |
| binds | B6 | – |
